The data set deals with T1, pVIc-TMR (UniProt P03274 240-250).
T1 chain: GVQSLKRRRCF
The experiment in a line: fluorescence polarization. In general terms: Polarisation of emitted light reports the rotation of a fluorescent probe.

B1: 30 bp dsDNA (dsDNA)
DNA 1: GACGACTAGGACGACGACGAGGATGACGAC
DNA 2: GTCGTCATCCTCGTCGTCGTCCTAGTCGTC
For B1, binding was characterised by a dissociation constant (Kd) of 262 ± 88 nM.

Broadly, the Kd is the equilibrium constant for the complex coming apart. A lower Kd goes with a tighter complex.

These data come from publication PMC4797294.
